We go through four molecules from PMC5555194, “Disease-linked mutations in factor H reveal pivotal role of cofactor activity in self-surface–selective regulation of complement activation” (The Journal of Biological Chemistry, 2017).

The target in test [1] is T1, C3b (human, UniProt P01024 23-667; P01024 749-1663).
T1 construct: Amine-coupled to the sensor chip; source: bought: Complement Technology (plasma-derived, human)
Briefly: SPR; C3b amine-coupled to a Biacore C1 chip; dilution series of CFH (from 2.5 to 0.019 uM), preincubated with or without a 2-fold molar excess of PspCN, flowed over; Biacore T200, 25 °C, 10 mM HEPES, 150 mM NaCl, 0.05% P20; 1:1 steady-state model; three experiments on different chips. The settings on record: both partners purified.

The target in test [2] is T1, C3b. The description is as above. The note with it: both partners purified. The source holds these as a separate data set.

Values joined by “and” are separate entries in the source; they are usually repeats but may differ in a detail not shown here. Identical values can stand only once.

T1 sequence (P01024 23-667, chain 1 of 2): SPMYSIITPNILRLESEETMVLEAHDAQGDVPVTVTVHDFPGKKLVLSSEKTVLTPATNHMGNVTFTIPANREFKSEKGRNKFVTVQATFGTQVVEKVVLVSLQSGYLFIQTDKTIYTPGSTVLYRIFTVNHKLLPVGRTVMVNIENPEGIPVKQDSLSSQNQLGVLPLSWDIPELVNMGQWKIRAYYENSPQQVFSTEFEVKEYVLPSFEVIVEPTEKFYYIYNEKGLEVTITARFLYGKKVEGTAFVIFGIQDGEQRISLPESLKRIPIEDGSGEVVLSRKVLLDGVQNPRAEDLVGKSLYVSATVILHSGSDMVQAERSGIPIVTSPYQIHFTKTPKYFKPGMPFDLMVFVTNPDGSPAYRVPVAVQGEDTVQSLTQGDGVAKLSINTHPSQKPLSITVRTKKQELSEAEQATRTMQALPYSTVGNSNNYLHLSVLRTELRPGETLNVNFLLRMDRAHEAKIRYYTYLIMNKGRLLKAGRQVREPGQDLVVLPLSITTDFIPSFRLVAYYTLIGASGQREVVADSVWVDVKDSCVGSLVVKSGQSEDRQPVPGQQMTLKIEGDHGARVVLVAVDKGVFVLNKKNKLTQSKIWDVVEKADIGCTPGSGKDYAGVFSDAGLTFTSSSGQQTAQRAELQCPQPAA
T1 sequence (P01024 749-1663, chain 2 of 2): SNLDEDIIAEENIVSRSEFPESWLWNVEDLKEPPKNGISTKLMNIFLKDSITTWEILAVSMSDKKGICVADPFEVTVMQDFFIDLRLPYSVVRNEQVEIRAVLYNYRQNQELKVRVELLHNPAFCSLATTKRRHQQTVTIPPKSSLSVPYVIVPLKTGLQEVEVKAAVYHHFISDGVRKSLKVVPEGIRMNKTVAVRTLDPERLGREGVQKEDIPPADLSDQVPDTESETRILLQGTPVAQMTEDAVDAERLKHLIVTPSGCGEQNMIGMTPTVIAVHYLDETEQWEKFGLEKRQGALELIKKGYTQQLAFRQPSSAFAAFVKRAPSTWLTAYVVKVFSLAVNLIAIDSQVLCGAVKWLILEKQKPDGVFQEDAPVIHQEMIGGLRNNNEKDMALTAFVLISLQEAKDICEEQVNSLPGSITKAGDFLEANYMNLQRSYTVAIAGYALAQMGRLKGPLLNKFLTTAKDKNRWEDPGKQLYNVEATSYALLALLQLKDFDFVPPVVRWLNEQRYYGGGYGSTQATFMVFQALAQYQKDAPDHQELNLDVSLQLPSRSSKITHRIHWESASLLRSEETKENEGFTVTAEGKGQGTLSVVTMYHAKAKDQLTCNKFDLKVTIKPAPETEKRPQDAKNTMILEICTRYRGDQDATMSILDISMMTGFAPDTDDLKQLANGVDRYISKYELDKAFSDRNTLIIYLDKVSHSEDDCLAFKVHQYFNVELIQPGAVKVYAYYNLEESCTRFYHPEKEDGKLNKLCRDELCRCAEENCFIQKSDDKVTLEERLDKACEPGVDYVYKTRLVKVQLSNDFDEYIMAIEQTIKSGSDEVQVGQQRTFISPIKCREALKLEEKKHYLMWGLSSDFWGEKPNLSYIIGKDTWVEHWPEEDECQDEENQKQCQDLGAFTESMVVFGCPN

B1: I62-CFH (recombinant human complement factor H, variant Ile-62, Tyr-402, Asp-936) (natural protein, UniProt P08603 19-1231, looked up)
chain: EDCNELPPRRNTEILTGSWSDQTYPEGTQAIYKCRPGYRSLGNIIMVCRKGEWVALNPLRKCQKRPCGHPGDTPFGTFTLTGGNVFEYGVKAVYTCNEGYQLLGEINYRECDTDGWTNDIPICEVVKCLPVTAPENGKIVSSAMEPDREYHFGQAVRFVCNSGYKIEGDEEMHCSDDGFWSKEKPKCVEISCKSPDVINGSPISQKIIYKENERFQYKCNMGYEYSERGDAVCTESGWRPLPSCEEKSCDNPYIPNGDYSPLRIKHRTGDEITYQCRNGFYPATRGNTAKCTSTGWIPAPRCTLKPCDYPDIKHGGLYHENMRRPYFPVAVGKYYSYYCDEHFETPSGSYWDHIHCTQDGWSPAVPCLRKCYFPYLENGYNQNYGRKFVQGKSIDVACHPGYALPKAQTTVTCMENGWSPTPRCIRVKTCSKSSIDIENGFISESQYTYALKEKAKYQCKLGYVTADGETSGSITCGKDGWSAQPTCIKSCDIPVFMNARTKNDFTWFKLNDTLDYECHDGYESNTGSTTGSIVCGYNGWSDLPICYERECELPKIDVHLVPDRKKDQYKVGEVLKFSCKPGFTIVGPNSVQCYHFGLSPDLPICKEQVQSCGPPPELLNGNVKEKTKEEYGHSEVVEYYCNPRFLMKGPNKIQCVDGEWTTLPVCIVEESTCGDIPELEHGWAQLSSPPYYYGDSVEFNCSESFTMIGHRSITCIHGVWTQLPQCVAIDKLKKCKSSNLIILEEHLKNKKEFDHNSNIRYRCRGKEGWIHTVCINGRWDPEVNCSMAQIQLCPPPPQIPNSHNMTTTLNYRDGEKVSVLCQENYLIQEGEEITCKDGRWQSIPLCVEKIPCSQPPQIEHGTINSSRSSQESYAHGTKLSYTCEGGFRISEENETTCYMGKWSSPPQCEGLPCKSPPDISHGVVAHMSDSYQYGEEVTYKCFEGFGIDGPAIAKCLGEKWSHPPSCIKTDCLSLPSFENAIPMGEKKDVYKAGEQVTYTCATYYKMDGASNVTCINSRWTGRPTCRDTSCVNPPTVQNAYIVSRQMSKYPSGERVRYQCRSPYEMFGDEEVMCLNGNWTEPPQCKDSTGKCGPPPPIDNGDITSFPLSVYAPASSVEYQCQNLYQLEGNKRITCRNGQWSEPPKCLHPCVISREIMENYNIALRWTAKQKLYSRTGESVEFVCKRGYRLSSRSHTLRTTCWDGKLEYPTCAKR
modifications: N-glycans trimmed to the first GlcNAc residues (EndoHf)
notes: complement factor H (CFH), human, CCPs 1-20, allotypic variant Ile-62, Tyr-402, Asp-936; Expressed from the vector pPICZaB and secreted; also called I62,D936-CFH; IYD-CFH; source: P. pastoris KM71H, secreted, enzymatically deglycosylated, chromatographically purified
For B1, the dissociation constant Kd (as a rule, the free concentration of one partner at which half of the binding sites on the other are occupied at equilibrium, for simple one-to-one binding) in test [1] was in the range of 1000 to 1300 nM.

B2: S1191L/V1197A-CFH (LA-CFH, on Ile-62 background) (natural protein, human, UniProt P08603 19-1231, looked up)
chain: EDCNELPPRRNTEILTGSWSDQTYPEGTQAIYKCRPGYRSLGNIIMVCRKGEWVALNPLRKCQKRPCGHPGDTPFGTFTLTGGNVFEYGVKAVYTCNEGYQLLGEINYRECDTDGWTNDIPICEVVKCLPVTAPENGKIVSSAMEPDREYHFGQAVRFVCNSGYKIEGDEEMHCSDDGFWSKEKPKCVEISCKSPDVINGSPISQKIIYKENERFQYKCNMGYEYSERGDAVCTESGWRPLPSCEEKSCDNPYIPNGDYSPLRIKHRTGDEITYQCRNGFYPATRGNTAKCTSTGWIPAPRCTLKPCDYPDIKHGGLYHENMRRPYFPVAVGKYYSYYCDEHFETPSGSYWDHIHCTQDGWSPAVPCLRKCYFPYLENGYNQNYGRKFVQGKSIDVACHPGYALPKAQTTVTCMENGWSPTPRCIRVKTCSKSSIDIENGFISESQYTYALKEKAKYQCKLGYVTADGETSGSITCGKDGWSAQPTCIKSCDIPVFMNARTKNDFTWFKLNDTLDYECHDGYESNTGSTTGSIVCGYNGWSDLPICYERECELPKIDVHLVPDRKKDQYKVGEVLKFSCKPGFTIVGPNSVQCYHFGLSPDLPICKEQVQSCGPPPELLNGNVKEKTKEEYGHSEVVEYYCNPRFLMKGPNKIQCVDGEWTTLPVCIVEESTCGDIPELEHGWAQLSSPPYYYGDSVEFNCSESFTMIGHRSITCIHGVWTQLPQCVAIDKLKKCKSSNLIILEEHLKNKKEFDHNSNIRYRCRGKEGWIHTVCINGRWDPEVNCSMAQIQLCPPPPQIPNSHNMTTTLNYRDGEKVSVLCQENYLIQEGEEITCKDGRWQSIPLCVEKIPCSQPPQIEHGTINSSRSSQESYAHGTKLSYTCEGGFRISEENETTCYMGKWSSPPQCEGLPCKSPPDISHGVVAHMSDSYQYGEEVTYKCFEGFGIDGPAIAKCLGEKWSHPPSCIKTDCLSLPSFENAIPMGEKKDVYKAGEQVTYTCATYYKMDGASNVTCINSRWTGRPTCRDTSCVNPPTVQNAYIVSRQMSKYPSGERVRYQCRSPYEMFGDEEVMCLNGNWTEPPQCKDSTGKCGPPPPIDNGDITSFPLSVYAPASSVEYQCQNLYQLEGNKRITCRNGQWSEPPKCLHPCVISREIMENYNIALRWTAKQKLYLRTGESAEFVCKRGYRLSSRSHTLRTTCWDGKLEYPTCAKR
modifications: N-glycans trimmed to the first GlcNAc residues (EndoHf)
notes: complement factor H (CFH), human, CCPs 1-20, aHUS-linked double mutation S1191L/V1197A on the background Ile-62, Tyr-402, Asp-936; Expressed from the vector pPICZaB and secreted; the native signal peptide is probably absent; source: P. pastoris KM71H, secreted, enzymatically deglycosylated, chromatographically purified
As for B2, the Kd in test [2] is 830 nM and 860 nM.

B3: V62-CFH (recombinant human complement factor H, variant Val-62, Tyr-402, Glu-936) (natural protein, UniProt P08603 19-1231, looked up)
chain: EDCNELPPRRNTEILTGSWSDQTYPEGTQAIYKCRPGYRSLGNVIMVCRKGEWVALNPLRKCQKRPCGHPGDTPFGTFTLTGGNVFEYGVKAVYTCNEGYQLLGEINYRECDTDGWTNDIPICEVVKCLPVTAPENGKIVSSAMEPDREYHFGQAVRFVCNSGYKIEGDEEMHCSDDGFWSKEKPKCVEISCKSPDVINGSPISQKIIYKENERFQYKCNMGYEYSERGDAVCTESGWRPLPSCEEKSCDNPYIPNGDYSPLRIKHRTGDEITYQCRNGFYPATRGNTAKCTSTGWIPAPRCTLKPCDYPDIKHGGLYHENMRRPYFPVAVGKYYSYYCDEHFETPSGSYWDHIHCTQDGWSPAVPCLRKCYFPYLENGYNQNYGRKFVQGKSIDVACHPGYALPKAQTTVTCMENGWSPTPRCIRVKTCSKSSIDIENGFISESQYTYALKEKAKYQCKLGYVTADGETSGSITCGKDGWSAQPTCIKSCDIPVFMNARTKNDFTWFKLNDTLDYECHDGYESNTGSTTGSIVCGYNGWSDLPICYERECELPKIDVHLVPDRKKDQYKVGEVLKFSCKPGFTIVGPNSVQCYHFGLSPDLPICKEQVQSCGPPPELLNGNVKEKTKEEYGHSEVVEYYCNPRFLMKGPNKIQCVDGEWTTLPVCIVEESTCGDIPELEHGWAQLSSPPYYYGDSVEFNCSESFTMIGHRSITCIHGVWTQLPQCVAIDKLKKCKSSNLIILEEHLKNKKEFDHNSNIRYRCRGKEGWIHTVCINGRWDPEVNCSMAQIQLCPPPPQIPNSHNMTTTLNYRDGEKVSVLCQENYLIQEGEEITCKDGRWQSIPLCVEKIPCSQPPQIEHGTINSSRSSQESYAHGTKLSYTCEGGFRISEENETTCYMGKWSSPPQCEGLPCKSPPEISHGVVAHMSDSYQYGEEVTYKCFEGFGIDGPAIAKCLGEKWSHPPSCIKTDCLSLPSFENAIPMGEKKDVYKAGEQVTYTCATYYKMDGASNVTCINSRWTGRPTCRDTSCVNPPTVQNAYIVSRQMSKYPSGERVRYQCRSPYEMFGDEEVMCLNGNWTEPPQCKDSTGKCGPPPPIDNGDITSFPLSVYAPASSVEYQCQNLYQLEGNKRITCRNGQWSEPPKCLHPCVISREIMENYNIALRWTAKQKLYSRTGESVEFVCKRGYRLSSRSHTLRTTCWDGKLEYPTCAKR
modifications: N-glycans trimmed to the first GlcNAc residues (EndoHf)
notes: complement factor H (CFH), human, CCPs 1-20, allotypic variant Val-62, Tyr-402, Glu-936; Expressed from the vector pPICZaB and secreted; also called V62,E936-CFH; recombinant CFH; source: P. pastoris KM71H, secreted, enzymatically deglycosylated, chromatographically purified
In the case of B3, in test [2], the Kd came out at 270 nM.

B4: R53H-CFH (on Ile-62 background) (natural protein, human, UniProt P08603 19-1231, looked up)
chain: EDCNELPPRRNTEILTGSWSDQTYPEGTQAIYKCHPGYRSLGNIIMVCRKGEWVALNPLRKCQKRPCGHPGDTPFGTFTLTGGNVFEYGVKAVYTCNEGYQLLGEINYRECDTDGWTNDIPICEVVKCLPVTAPENGKIVSSAMEPDREYHFGQAVRFVCNSGYKIEGDEEMHCSDDGFWSKEKPKCVEISCKSPDVINGSPISQKIIYKENERFQYKCNMGYEYSERGDAVCTESGWRPLPSCEEKSCDNPYIPNGDYSPLRIKHRTGDEITYQCRNGFYPATRGNTAKCTSTGWIPAPRCTLKPCDYPDIKHGGLYHENMRRPYFPVAVGKYYSYYCDEHFETPSGSYWDHIHCTQDGWSPAVPCLRKCYFPYLENGYNQNYGRKFVQGKSIDVACHPGYALPKAQTTVTCMENGWSPTPRCIRVKTCSKSSIDIENGFISESQYTYALKEKAKYQCKLGYVTADGETSGSITCGKDGWSAQPTCIKSCDIPVFMNARTKNDFTWFKLNDTLDYECHDGYESNTGSTTGSIVCGYNGWSDLPICYERECELPKIDVHLVPDRKKDQYKVGEVLKFSCKPGFTIVGPNSVQCYHFGLSPDLPICKEQVQSCGPPPELLNGNVKEKTKEEYGHSEVVEYYCNPRFLMKGPNKIQCVDGEWTTLPVCIVEESTCGDIPELEHGWAQLSSPPYYYGDSVEFNCSESFTMIGHRSITCIHGVWTQLPQCVAIDKLKKCKSSNLIILEEHLKNKKEFDHNSNIRYRCRGKEGWIHTVCINGRWDPEVNCSMAQIQLCPPPPQIPNSHNMTTTLNYRDGEKVSVLCQENYLIQEGEEITCKDGRWQSIPLCVEKIPCSQPPQIEHGTINSSRSSQESYAHGTKLSYTCEGGFRISEENETTCYMGKWSSPPQCEGLPCKSPPDISHGVVAHMSDSYQYGEEVTYKCFEGFGIDGPAIAKCLGEKWSHPPSCIKTDCLSLPSFENAIPMGEKKDVYKAGEQVTYTCATYYKMDGASNVTCINSRWTGRPTCRDTSCVNPPTVQNAYIVSRQMSKYPSGERVRYQCRSPYEMFGDEEVMCLNGNWTEPPQCKDSTGKCGPPPPIDNGDITSFPLSVYAPASSVEYQCQNLYQLEGNKRITCRNGQWSEPPKCLHPCVISREIMENYNIALRWTAKQKLYSRTGESVEFVCKRGYRLSSRSHTLRTTCWDGKLEYPTCAKR
modifications: N-glycans trimmed to the first GlcNAc residues (EndoHf)
notes: complement factor H (CFH), human, CCPs 1-20, aHUS-linked mutation R53H on the background Ile-62, Tyr-402, Asp-936; Expressed from the vector pPICZaB and secreted; the native signal peptide is probably absent; also called R53-CFH; source: P. pastoris KM71H, secreted, enzymatically deglycosylated, chromatographically purified
Turning to B4, the Kd in test [2] was 1200 nM and 1800 nM; in test [1], 1000 nM.
